Drawing on US5965443, this text covers transposase activity (fold activity vs wild type) and activity for 2 substances.

The target of data set [1] is Tn5 transposase LP372 K54E (Escherichia coli (transposon Tn5)?) (UniProt Q46731). As to the kind of experiment: cell_activity. To be noted: mutant at position 372 alone; MA56 background inferred.
For data set [2], the target named is Tn5 transposase EK54/MA56/LP372 (in-cell assay) (Escherichia coli (transposon Tn5)?) (UniProt Q46731). As to the kind of experiment: cell_activity. To be noted: at least about 100-fold transposase activity; assay substrate not detailed for this test.
The target in data set [3] is Tn5 transposase EK54 (with MA56, pRZ5412-EK54) P372L (Escherichia coli (transposon Tn5)?) (UniProt Q46731). As to the kind of experiment: cell_activity. To be noted: mutant at position 54 alone; MA56 background inferred.
Data set [4] deals with T1, Tn5 transposase EK54/MA56/LP372 (modified, hyperactive) (Escherichia coli (transposon Tn5)?) (UniProt Q46731).
T1 sequence: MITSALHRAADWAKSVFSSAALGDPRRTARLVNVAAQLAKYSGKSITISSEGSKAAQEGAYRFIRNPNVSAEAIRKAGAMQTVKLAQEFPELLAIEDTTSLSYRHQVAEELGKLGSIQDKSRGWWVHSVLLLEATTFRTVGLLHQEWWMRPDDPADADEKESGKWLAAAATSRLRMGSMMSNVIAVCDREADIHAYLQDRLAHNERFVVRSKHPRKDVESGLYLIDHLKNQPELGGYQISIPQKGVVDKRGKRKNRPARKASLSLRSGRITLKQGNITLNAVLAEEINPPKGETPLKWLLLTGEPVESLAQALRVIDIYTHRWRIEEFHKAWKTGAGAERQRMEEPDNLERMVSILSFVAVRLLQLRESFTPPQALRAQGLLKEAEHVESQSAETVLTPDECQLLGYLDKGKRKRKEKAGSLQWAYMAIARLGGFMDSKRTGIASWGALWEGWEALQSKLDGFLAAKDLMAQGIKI
Conditions: in vitro transposition; 0.1 M K glutamate, 25 mM Tris acetate pH 7.5, 10 mM Mg acetate, 20 C 60 min then 37 C 2-3 h; underestimates total events; scale: % of plasmid-receiving cells.

In the case of “lacZ-containing Tn5 transposable element in E. coli MDW320”, the transposase activity (fold activity vs wild type) in data set [1] was 10; in data set [2], > 100; in data set [3] it was 10.
Take “pRZTL1 circular plasmid (two inverted Tn5 19 bp OE termini)”: the activity in data set [4] was 0.1.
